Experimental data reported in the supplement of paper PMC12764529.
± gives the half width of the 95% confidence interval.

test: folding stability dG unfold (combined trypsin and chymotrypsin); higher = more stable
In short: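 Unfolding free energy was derived, per protease or combined, by relating Bayesian-fitted K50 values from sequencing counts to a sequence-predicted unfolded-state K50 and a shared folded-state K50. The underlying digests exposed cysteine-free mini-proteins under 80 residues, in a PA-tagged cDNA display construct, to trypsin and chymotrypsin at 11 threefold-diluted concentrations and to a no-protease condition. A filter kept only designs with AlphaFold2 dimer inter-PAE above 15.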

| Sequence | folding stability dG unfold [kcal/mol] |
| --- | --- |
| SAGGSAGGSAGGMITKVTVTYLPGGEVSLTITDENGTPSEKTLSLAELKKYPDIPLELDPSAGGSAGGSAGG [r7_238_JUSTAS] | -0.374 ± 0.088 |
| SAGGSAGGSDWFPIRVEDIEYERDPADGRDSVTIEAQFPGKPHTFTIPPNAPIKPGDELWIPFSAGGSAGGS [r20_49_TrROS] | < -1 |
| SAGGSAGGSAGGAMREVPIVLPFSPEMSEEEARALIEEELKRKGDPIAKLVIDKKSPALLSAGGSAGGSAGG [r7_703_JUSTAS] | < -1 |
| SAGGSAGGSKIKILFDPNMTLEEAIELAEKLTKEFDAEVELEIIPKPKPKPLPVIDPENPKLLSAGGSAGGS [r12_159_TrMRF] | -0.72 ± 0.3 |
| SAGGSAGGSAGGLADLLKGKTFTVTFPEGDKPYPATFEPTADDTVRVGFPDGDSYPVPAAYQSAGGSAGGSA [r18_169_TrMRF] | < -1 |
| EMTVTVKIEIEKTPDSIKIKITVEVNGKKIEEVEITYDKKTKKIYIKVKVKSKEDLDELKKLLEKLGFKVES [r1_455_TrROS_Hall] | > 6 |
| SAGGSAGGSTIREILDALPPGREIDVERHPNNGHYEISIQNPNGPNPTFQIDDPVTKEIAEWISAGGSAGGS [r12_174_TrROS] | -0.0634 ± 0.11 |
| SAGGSAGGSAGGKPIYILAEHPSNGKVVLLPVDSPEKAIEFAKALADVPDFKIAHVDAFGSAGGSAGGSAGG [r11_951_TrMRF] | -0.287 ± 0.22 |
| LKITLPGGAEVTEIDDIKVSSDGYIELNVRVRNPDNDVEVPVPVYIPVPPVPPVPVKVSFIPGTGKLVVDDS [r1_411_TrMRF] | < -1 |
| SAGMYIEGSLSSPEEAPVVAVPFPGPEKLLLAPLAVGLEEIREALEEEGFEPVEIRVAETEPGVPLDLSAGG [r19_386_TrMRF] | -0.694 ± 0.24 |
| SAGGSAGGSAGGSERHTAVLVDTGFRISPAPEEGGLRLEAGASLTIREVPEDALKEVLGSAGGSAGGSAGGS [r4_274_TrMRF] | < -1 |
| SAGGSAGGSALVRIEFPNGREIEIPNNMPYEQAKDVAVELAEEHGKNGRPFKVKIEEIKPPGSAGGSAGGSA [r18_213_TrROS] | -0.511 ± 0.56 |
| SAGGSAGGSAGPITITDIPSEEEAAALIAARPGVEVERKPVTLSEEERWEVTLTLPGEAASAGGSAGGSAGG [r17_542_JUSTAS] | -0.722 ± 0.18 |
| SAGGNPDWIPIQVPFEDPGDQDAMKKLVEELADIFLDEGIKPIEVEHTNPGHYSVWIPFDGKSIRIHSAGGS [r16_703_TrROS] | -0.888 ± 0.38 |
| SAGGGMTLTQVSSHQSPNGGVPTTLVTETLFYPETGTAVVLTKVRLPETGEVTTVASTVLPIPPPLLSAGGS [r8_384_JUSTAS] | -0.726 ± 0.31 |
| SAGGSAMDAEQIEEKIKEAMQDHGHEVEVEVQRDPNNTVVIQVESGPGMDKDRIQEALQEKFGVKISAGGSA [r15_807_TrROS] | < -1 |
| SAGGSAGGSAGGKEIPLDEVKDIQPSNDKWYVVFPGKPQRFPPDDIPIPPGKPIRIYPLSAGGSAGGSAGGS [r10_665_TrROS] | -0.154 ± 0.24 |
| SAGGSAPPASAPGVVEEVEAEVPVDVPEVARLTGRPPRPGERYRVRVVRRVYPDGRVETDVYIEPGSAGGSA [r15_91_TrMRF] | -0.252 ± 0.14 |
| SAGGSAGGSAGITIEFPEEENNFRVENPNDGKKHEIPGTPDEIKEYALDKFPGRPIKIHPSAGGSAGGSAGG [r11_614_TrROS] | -0.511 ± 0.43 |
| SAGGMPIKPKVELEPLEDAYLVRVRFEAPDRPIEIRRAFASFPDAVREAEEIARFLEEAEIPSPEGGSAGGS [r16_24_TrMRF] | < -1 |
| SAGGSAGGSNIVSARPLGDLVLIEIEPGGKPLRAVVRPSELPPNPPIPPGLSYRVEPGSVSDYSAGGSAGGS [r12_1005_TrMRF] | < -1 |
| SAGGSAGGSIKVPKNSKVTVLYEKGGKKIEVSGIVDPKTGKILETDSLENLPDAKIVEIKVEDSAGGSAGGS [r12_6_TrMRF] | < -1 |
| SAGGSAGGSAGKVKVKVESNPDGTLIIAEEFEDFVVIVELKVDDDGIHFHPHPVVLSKELSAGGSAGGSAGG [r17_72_TrMRF] | -0.695 ± 0.38 |
| SAGGSAGGSAGGSMAIPVYLKIENKVLTSLDELKEAVESGKPIEIERIEAFDLSPDEEVSAGGSAGGSAGGS [r4_479_TrMRF] | < -1 |

| Sequence | folding stability dG unfold [kcal/mol] |
| --- | --- |
| SVPPFLNLPEAAKALAKAKPGPPVPRLTFPVTTDDPEEALEEILKQYPHLHPDKIKRVEVGDGYLTVEFGSA [r9_723_TrMRF] | < -1 |
| SAGGKVREIDFPMDPGELRDAIDELKREGYMVMIEMPNGQERTIDPNLEDLPPGMPFEIYVMPPKDGSAGGS [r16_31_TrROS] | < -1 |
| SAGGSYRIEIEDIDPKPQWRPNPNGEWEPRPTLTIEVKIERNPDEMPEKEKQKIEEQAERIAKKFFSAGGSA [r2_40_TrROS] | < -1 |
| SAGGSAGGSAGGSMPLRKVTVSRPDSTLEFEFPESVPEEEVKEKLKKEYPNAEVKVEPESAGGSAGGSAGGS [r4_155_JUSTAS] | < -1 |
| SAGGSSLDEKIKQAVEEGKVPTEIEFTDPSNDLKTRYLVTVKSVLPGSYEVEVEEEIFDPDNPVLVSAGGSA [r2_420_JUSTAS] | < -1 |
| SAGGSITLEIELPNGAKITVTIEYDEETGTVTIEAEITLPNGTVIRIKATINKDGTITIEKIEVFKPSAGGS [r16_213_TrROS_Hall] | > 6 |
| SAGMKKEKPKETVTITLKNGKKIEIVKTDDSIKIFITDKNGKKRELTVKGLSLEEILKKLEELGFEVEPSAG [r5_613_TrROS_Hall] | 0.353 ± 0.2 |
| SAAPTSSGPISLNKPEILTITSVEADPETGTITTPTRVELTEEELDPFNPEIPTFKKKYLDVTLTTPTSSAG [r14_888_JUSTAS] | < -1 |
| SAGGSAGGSAGGRIRLPNMPPGHDMEIKSIKVPEPGPVKLTIEPPGSDKKQERYMPPDDISAGGSAGGSAGG [r7_342_TrROS] | < -1 |
| SAGGSAGGSAGNVEEIADQLKPNGYKISTVEPTDDQVEVEIYNPESKEPRKFRIPPNQPISAGGSAGGSAGG [r11_428_TrROS] | < -1 |
| SAGGSAGGSMKTALLDDGKTIPLPEEELPPDAGVEEVAKKIPPEAKKLTVKEPDGSTKTVPLASAGGSAGGS [r20_161_JUSTAS] | < -1 |
| SAGGMTEIEPDSEEKAEAEIEKVVEEEAEKALKSEKKNVTIKVDVKVVDPVTGKSKTYPVEKLVKLPSAGGS [r8_163_JUSTAS] | < -1 |
| SAGGSNPGDPEQVPKVKIKITYPDNGKEFTIPVEELRNGPIEEAVSEIANEARERYPGHPLRIEPVSAGGSA [r2_392_TrROS] | < -1 |
| SAGGSASPEELAERVAKEIEEKYPVEVTEIRVEEVSEDEVVLSMTYRKPLPGGETEVENRTVTLPQSAGGSA [r15_276_JUSTAS] | -0.404 ± 0.46 |
| SAGGSAGGSPPFTITFIDENGKGVKKINLPFDPKKPSVLPLSEEEIKALKEELGPEAKSITLSSAGGSAGGS [r12_514_JUSTAS] | < -1 |
| SAGGMTPEELKKVTIEKTVKDPSGNEYLEKSEVKEVEKKDEKYILKIPYTIKDKNGNTISNGTKTIPLSAGG [r13_172_JUSTAS] | < -1 |
| SAGGSAGGSKITITIAPGMSEEEAKKLAEELAKEFNIEIEVKIEPLKPVEKKFYVDKETNEIKSAGGSAGGS [r12_159_TrROS_Hall] | < -1 |
| SAGGSAETYPVTVVVPLPPGGRELPVEELEDLVRETLANVPDLPDVKVEVTLLEPEGRALVRVEFPSAGGSA [r15_1029_TrMRF] | -0.594 ± 0.16 |
| SAGGPKEIIKEIAEKYGITEIMPWDDMKNMPPENPNKIHIWPDPEGHYMVMIRAPNGNKKSIEFPIESAGGS [r16_686_TrROS] | < -1 |
| SAGGSAGGEYKVYPVKGDLKEFFDEAYKENPGGVRIIDPDTDEVLDFPPDLSLDEFPGTFVVLGSAGGSAGG [r6_857_TrMRF] | < -1 |
| SAGGGSHTFKDNGKKIKITVYPPPNGNMRVQLQIYDPDDGKPKPKAIAPFRGGSVEDAIKDLLDAGISAGGS [r16_378_TrROS] | -0.625 ± 0.32 |
| SMPISAEELAELFPGVVEIKPEPDSTVITAKDPNGTNPVFTLSPAGTVTVTTYTPGSGTTTTTTIPTALLSA [r9_427_JUSTAS] | 0.159 ± 0.071 |
| SAGGSAGGSAGGDVEVKEFTTTDPETGEEIIRVTETIPGNEKIVTTYTKDGKPISTKKILSAGGSAGGSAGG [r7_454_JUSTAS] | -0.528 ± 0.24 |
